In paper PMC6945068:

Target: purified 3xFlag-tagged B56γ (Xenopus laevis)
Assay: pull-down (amylose beads) with immunoblot quantification
Conditions: chain shown with the change, purified Flag-B56γ, 23°C, 30 min, read off a plot

purified 3xFlag-tagged B56γ (Xenopus laevis), sequence (chain, as listed by the source): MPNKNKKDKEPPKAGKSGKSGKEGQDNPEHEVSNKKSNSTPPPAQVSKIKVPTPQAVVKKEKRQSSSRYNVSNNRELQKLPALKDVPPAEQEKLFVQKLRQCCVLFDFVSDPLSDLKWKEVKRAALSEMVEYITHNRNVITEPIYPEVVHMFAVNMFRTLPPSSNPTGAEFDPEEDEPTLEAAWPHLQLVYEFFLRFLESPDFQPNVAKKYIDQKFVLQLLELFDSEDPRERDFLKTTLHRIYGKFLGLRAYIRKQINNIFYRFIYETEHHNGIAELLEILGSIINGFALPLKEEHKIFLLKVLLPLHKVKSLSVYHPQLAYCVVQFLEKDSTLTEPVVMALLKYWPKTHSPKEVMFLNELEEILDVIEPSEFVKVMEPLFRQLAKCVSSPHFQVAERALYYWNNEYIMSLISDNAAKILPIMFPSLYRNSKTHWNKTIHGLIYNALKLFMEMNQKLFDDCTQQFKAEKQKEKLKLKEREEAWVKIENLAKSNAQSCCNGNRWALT

response (pre-incubated with Cdk2-cyclin A at 30°C for 60 min (+Cdk), parent: est. 5.3): 1.2 A.U.
response (without Cdk2-cyclin A pre-incubation, parent: 1.0): 1 A.U.
B1: MBP-fused Apc1-loop^500 wild type (residues 515-584 of Xenopus tropicalis Apc1), Q08D52 T532A; T539A; S558A (protein)
chain: GLAAPSLGMSNPMPRPSAPLESISAPAKPLNKHLAPMDEAGMLAPVPELRDSTRLHESTYLDDCTFHQFG
